According to patent US20220088145A1:

Tests used:
[1] = molecular target: HLA-DR15 dimer (DR1501) (human); assay: peptide binding to HLA-DR dimer; EC50 ratio (<20 = high affinity, 20-100 = moderate affinity); method not described
[2] = molecular target: HLA-DR7 dimer (DR0701) (human); assay: as above

| Substance | EC50 Ratio [1] | EC50 Ratio [2] |
| --- | --- | --- |
| E. rectale Fla1 p445-464 (peptide) | 4.5 | – |
| R. Intest. Fla1 p408-427 (peptide) | 4.1 | 5 |
